Experiments:
[1] = molecular target: IN CTD mutant (RRKAK to RAAAK) (HIV-1) (UniProt P12497); experiment: BLI; IN CTD construct (5 uM, acetate buffer pH 5) amine-coupled (EDC/NHS) to carboxyl biosensors, Imp7 in solution at 1-40 000 nM; steady-state analysis; 25 °C; GatorPrime
[2] = molecular target: C-terminal domain of HIV-1 integrase (HIV-1) (UniProt P12497); experiment: as above

Question: Which results are given for “Xenopus laevis importin 7 (natural protein)”?
Answer: Kd [1]: 299 nM; Kd [2]: 17.9 nM; stoichiometry N [2]: 1

— paper PMC13399220
